According to article PMC9482650, “Quantitative fragmentomics allow affinity mapping of interactomes” (Nature Communications, 2022):

Key:
Experiment in all cases: holdup assay
Parameters in all cases: key: below the threshold = too weak to quantify, mostly under pKd 3.1 to 4
TJP2_1, Q9UDY2 = biological target: TJP2_1, Q9UDY2
LNX2_2, Q8N448 = biological target: T1, LNX2_2, Q8N448
T1 sequence (Q8N448 334-432, limits assumed, looked up): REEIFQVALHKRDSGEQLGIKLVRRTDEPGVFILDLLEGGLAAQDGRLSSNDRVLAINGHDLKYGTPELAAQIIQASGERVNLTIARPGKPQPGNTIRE

ARHGAP21, Q5T5U3 = biological target: T2, ARHGAP21, Q5T5U3
T2 sequence (Q5T5U3 45-169, limits assumed, looked up): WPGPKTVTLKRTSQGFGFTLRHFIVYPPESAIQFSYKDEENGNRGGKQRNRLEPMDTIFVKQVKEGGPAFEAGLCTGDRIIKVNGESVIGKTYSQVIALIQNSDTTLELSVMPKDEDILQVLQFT

APBA1_1, Q02410 = biological target: T3, APBA1_1, Q02410
T3 sequence (Q02410 651-752, limits assumed, looked up): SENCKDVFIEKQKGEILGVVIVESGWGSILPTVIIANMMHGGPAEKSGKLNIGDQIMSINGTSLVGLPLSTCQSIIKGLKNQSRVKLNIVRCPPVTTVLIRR

MPP6, Q9NZW5 = biological target: T4, MPP6, Q9NZW5
T4 sequence (Q9NZW5 125-219, limits assumed, looked up): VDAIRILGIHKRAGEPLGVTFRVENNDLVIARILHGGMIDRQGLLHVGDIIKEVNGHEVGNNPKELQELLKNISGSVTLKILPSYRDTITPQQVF

PICK1, Q9NRD5 = biological target: PICK1, Q9NRD5
Sequence of PICK1, Q9NRD5 (Q9NRD5 17-115): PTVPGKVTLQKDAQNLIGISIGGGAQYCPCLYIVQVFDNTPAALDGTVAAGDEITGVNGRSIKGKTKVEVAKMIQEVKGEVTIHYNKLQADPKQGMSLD

APBA1_2, Q02410 = biological target: T5, APBA1_2, Q02410
T5 sequence (Q02410 742-832, limits assumed, looked up): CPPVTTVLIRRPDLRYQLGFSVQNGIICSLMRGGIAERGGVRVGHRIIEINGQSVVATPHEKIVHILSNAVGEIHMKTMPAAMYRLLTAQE

NOS1, P29475 = biological target: NOS1, P29475
Sequence of NOS1, P29475 (P29475 9-101): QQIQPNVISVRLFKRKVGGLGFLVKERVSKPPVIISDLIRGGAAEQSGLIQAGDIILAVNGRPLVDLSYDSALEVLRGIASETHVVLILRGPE

RAPGEF6, Q8TEU7 = biological target: T6, RAPGEF6, Q8TEU7
T6 sequence (Q8TEU7 525-625, limits assumed, looked up): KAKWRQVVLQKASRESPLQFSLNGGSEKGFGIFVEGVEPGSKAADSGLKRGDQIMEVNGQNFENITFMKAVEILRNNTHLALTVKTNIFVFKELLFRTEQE

Inadl_2, Q8NI35 = biological target: Inadl_2, Q8NI35
Sequence of Inadl_2, Q8NI35 (Q8NI35 238-335): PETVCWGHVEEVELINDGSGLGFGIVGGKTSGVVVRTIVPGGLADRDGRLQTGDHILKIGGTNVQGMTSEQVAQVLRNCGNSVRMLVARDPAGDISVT

Inadl_9, Q8NI35 = biological target: Inadl_9, Q8NI35
Sequence of Inadl_9, Q8NI35 (Q8NI35 1530-1615): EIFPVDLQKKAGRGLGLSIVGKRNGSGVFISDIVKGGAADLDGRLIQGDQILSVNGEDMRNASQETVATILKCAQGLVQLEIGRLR

MAGI1_1, Q96QZ7 = biological target: MAGI1_1, Q96QZ7
Sequence of MAGI1_1, Q96QZ7 (Q96QZ7 1-106): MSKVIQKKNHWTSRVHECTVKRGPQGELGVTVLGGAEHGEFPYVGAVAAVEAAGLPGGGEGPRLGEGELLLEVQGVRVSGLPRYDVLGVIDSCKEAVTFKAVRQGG

NHERF4_4, Q86UT5 = biological target: NHERF4_4, Q86UT5
Sequence of NHERF4_4, Q86UT5 (Q86UT5 464-550): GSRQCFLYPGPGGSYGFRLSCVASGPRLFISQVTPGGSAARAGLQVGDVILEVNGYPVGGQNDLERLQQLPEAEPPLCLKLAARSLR

SNTB1, Q13884 = biological target: T7, SNTB1, Q13884
T7 sequence (Q13884 107-205, limits assumed, looked up): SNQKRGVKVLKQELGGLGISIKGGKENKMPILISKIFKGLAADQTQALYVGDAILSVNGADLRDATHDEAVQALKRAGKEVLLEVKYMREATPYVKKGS

NHERF2_2, Q15599 = biological target: NHERF2_2, Q15599
Sequence of NHERF2_2, Q15599 (Q15599 142-238): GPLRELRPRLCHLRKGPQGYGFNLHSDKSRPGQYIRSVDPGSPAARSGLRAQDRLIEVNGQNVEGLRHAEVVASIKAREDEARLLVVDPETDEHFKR

GRASP, Q7Z6J2 = biological target: GRASP, Q7Z6J2
Sequence of GRASP, Q7Z6J2 (Q7Z6J2 96-193): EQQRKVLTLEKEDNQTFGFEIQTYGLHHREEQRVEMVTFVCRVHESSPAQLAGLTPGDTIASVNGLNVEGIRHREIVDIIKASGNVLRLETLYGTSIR

LIN7A, O14910 = biological target: T8, LIN7A, O14910
T8 sequence (O14910 103-200, limits assumed, looked up): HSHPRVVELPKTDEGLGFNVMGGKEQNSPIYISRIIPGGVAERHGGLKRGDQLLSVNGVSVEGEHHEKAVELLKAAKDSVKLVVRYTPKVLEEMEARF

NHERF4_1, Q86UT5-2 = biological target: NHERF4_1, Q86UT5-2
Sequence of NHERF4_1, Q86UT5-2 (Q86UT5 other isoform, or with tags, fused parts or gaps): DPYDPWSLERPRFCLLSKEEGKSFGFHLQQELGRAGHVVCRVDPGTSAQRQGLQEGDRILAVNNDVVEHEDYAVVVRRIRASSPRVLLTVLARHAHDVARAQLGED

HTRA4, P83105 = biological target: T9, HTRA4, P83105
T9 sequence (P83105 378-476, limits assumed, looked up): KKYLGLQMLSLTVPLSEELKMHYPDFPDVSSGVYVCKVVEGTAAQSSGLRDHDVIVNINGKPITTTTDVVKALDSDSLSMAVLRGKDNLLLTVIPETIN

GRID2IP_1, A4D2P6 = biological target: GRID2IP_1, A4D2P6
Sequence of GRID2IP_1, A4D2P6 (A4D2P6 1-87): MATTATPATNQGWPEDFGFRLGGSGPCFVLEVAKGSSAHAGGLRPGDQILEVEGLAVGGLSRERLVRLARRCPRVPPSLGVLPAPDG

DLG4_1, P78352 = biological target: DLG4_1, P78352
Sequence of DLG4_1, P78352 (P78352 62-152): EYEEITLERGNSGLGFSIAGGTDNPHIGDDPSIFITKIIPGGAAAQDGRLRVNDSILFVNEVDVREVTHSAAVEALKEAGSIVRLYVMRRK

GRIP1_7, Q9Y3R0 = biological target: T10, GRIP1_7, Q9Y3R0
T10 sequence (Q9Y3R0 999-1096, limits assumed, looked up): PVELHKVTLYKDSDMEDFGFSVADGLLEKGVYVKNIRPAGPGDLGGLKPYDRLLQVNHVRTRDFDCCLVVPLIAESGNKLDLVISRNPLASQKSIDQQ

DLG3_3, Q92796 = biological target: T11, DLG3_3, Q92796
T11 sequence (Q92796 374-475, limits assumed, looked up): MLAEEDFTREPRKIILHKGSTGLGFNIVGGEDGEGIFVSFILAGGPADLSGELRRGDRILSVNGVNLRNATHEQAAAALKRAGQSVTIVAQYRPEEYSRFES

TJP1_3, Q07157 = biological target: TJP1_3, Q07157
Sequence of TJP1_3, Q07157 (Q07157 416-512): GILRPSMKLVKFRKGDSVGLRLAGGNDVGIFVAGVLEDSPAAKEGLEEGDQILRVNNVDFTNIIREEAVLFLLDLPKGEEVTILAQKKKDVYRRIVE

TJP3_3, O95049 = biological target: T12, TJP3_3, O95049
T12 sequence (O95049 375-456, limits assumed, looked up): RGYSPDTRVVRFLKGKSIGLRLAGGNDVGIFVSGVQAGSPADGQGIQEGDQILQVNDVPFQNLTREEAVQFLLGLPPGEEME

[1] = modified: phospho on S at position -3 from the C-terminal residue
[2] = plain residues with an end cap or a label only (N-terminal biotin on a linker: ado-ado)

Sequence of TJP2_1, Q9UDY2 (Q9UDY2 24-128): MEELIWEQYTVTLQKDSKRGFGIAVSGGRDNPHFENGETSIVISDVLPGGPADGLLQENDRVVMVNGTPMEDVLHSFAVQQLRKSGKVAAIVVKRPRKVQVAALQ

## RRVRKLPSTTL [RPS6KA1_-3P, Q15418]
TJP2_1, Q9UDY2; [1]
  pKd: 3.57
LNX2_2, Q8N448; [1]
  pKd: below the threshold
ARHGAP21, Q5T5U3; [1]
  pKd: below the threshold
APBA1_1, Q02410; [1]
  pKd: below the threshold
MPP6, Q9NZW5; [1]
  pKd: below the threshold
PICK1, Q9NRD5; [1]
  pKd: below the threshold
APBA1_2, Q02410; [1]
  pKd: below the threshold
NOS1, P29475; [1]
  pKd: below the threshold
RAPGEF6, Q8TEU7; [1]
  pKd: below the threshold
Inadl_2, Q8NI35; [1]
  pKd: below the threshold
Inadl_9, Q8NI35; [1]
  pKd: below the threshold
MAGI1_1, Q96QZ7; [1]
  pKd: below the threshold
NHERF4_4, Q86UT5; [1]
  pKd: below the threshold
SNTB1, Q13884; [1]
  pKd: 4.39
NHERF2_2, Q15599; [1]
  pKd: 3.68
GRASP, Q7Z6J2; [1]
  pKd: below the threshold
LIN7A, O14910; [1]
  pKd: below the threshold
NHERF4_1, Q86UT5-2; [1]
  pKd: below the threshold
HTRA4, P83105; [1]
  pKd: 3.72
GRID2IP_1, A4D2P6; [1]
  pKd: below the threshold
DLG4_1, P78352; [1]
  pKd: below the threshold
GRIP1_7, Q9Y3R0; [1]
  pKd: 3.68
DLG3_3, Q92796; [1]
  pKd: below the threshold
TJP1_3, Q07157; [1]
  pKd: below the threshold
TJP3_3, O95049; [1]
  pKd: below the threshold

## TMQMSLKDLL [GLA, P06280]
TJP2_1, Q9UDY2; [2]
  pKd: below the threshold
LNX2_2, Q8N448; [2]
  pKd: below the threshold
ARHGAP21, Q5T5U3; [2]
  pKd: 3.54
APBA1_1, Q02410; [2]
  pKd: below the threshold
MPP6, Q9NZW5; [2]
  pKd: below the threshold
PICK1, Q9NRD5; [2]
  pKd: below the threshold
APBA1_2, Q02410; [2]
  pKd: 3.53
NOS1, P29475; [2]
  pKd: 3.73
RAPGEF6, Q8TEU7; [2]
  pKd: 3.69
Inadl_2, Q8NI35; [2]
  pKd: below the threshold
Inadl_9, Q8NI35; [2]
  pKd: below the threshold
MAGI1_1, Q96QZ7; [2]
  pKd: below the threshold
NHERF4_4, Q86UT5; [2]
  pKd: below the threshold
SNTB1, Q13884; [2]
  pKd: below the threshold
NHERF2_2, Q15599; [2]
  pKd: 3.62
GRASP, Q7Z6J2; [2]
  pKd: 4.6
LIN7A, O14910; [2]
  pKd: below the threshold
NHERF4_1, Q86UT5-2; [2]
  pKd: 3.99
HTRA4, P83105; [2]
  pKd: below the threshold
GRID2IP_1, A4D2P6; [2]
  pKd: below the threshold
DLG4_1, P78352; [2]
  pKd: below the threshold
GRIP1_7, Q9Y3R0; [2]
  pKd: below the threshold
DLG3_3, Q92796; [2]
  pKd: 3.65
TJP1_3, Q07157; [2]
  pKd: 3.61
TJP3_3, O95049; [2]
  pKd: below the threshold

## PMESGICTIV [TTC24, A2A3L6]
TJP2_1, Q9UDY2; [2]
  pKd: 3.81
LNX2_2, Q8N448; [2]
  pKd: 5.56
ARHGAP21, Q5T5U3; [2]
  pKd: 3.96
APBA1_1, Q02410; [2]
  pKd: below the threshold
MPP6, Q9NZW5; [2]
  pKd: below the threshold
PICK1, Q9NRD5; [2]
  pKd: 4.3
APBA1_2, Q02410; [2]
  pKd: 4.75
NOS1, P29475; [2]
  pKd: 3.98
RAPGEF6, Q8TEU7; [2]
  pKd: below the threshold
Inadl_2, Q8NI35; [2]
  pKd: 3.76
Inadl_9, Q8NI35; [2]
  pKd: 4.06
MAGI1_1, Q96QZ7; [2]
  pKd: below the threshold
NHERF4_4, Q86UT5; [2]
  pKd: below the threshold
SNTB1, Q13884; [2]
  pKd: 4.58
NHERF2_2, Q15599; [2]
  pKd: 3.83
GRASP, Q7Z6J2; [2]
  pKd: 4.65
LIN7A, O14910; [2]
  pKd: below the threshold
NHERF4_1, Q86UT5-2; [2]
  pKd: 4.2
HTRA4, P83105; [2]
  pKd: 4.77
GRID2IP_1, A4D2P6; [2]
  pKd: below the threshold
DLG4_1, P78352; [2]
  pKd: 4.71
GRIP1_7, Q9Y3R0; [2]
  pKd: below the threshold
DLG3_3, Q92796; [2]
  pKd: below the threshold
TJP1_3, Q07157; [2]
  pKd: below the threshold
TJP3_3, O95049; [2]
  pKd: below the threshold
